In US20210292396A1 (INTERNATIONAL AIDS VACCINE INITIATIVE, published 2021):

Key:
Assay in all cases: cell-based or functional assay
[1] = molecular target: HIV Env of isolate T257-31 (HIV)
[2] = molecular target: HIV Env of isolate 928-28 (HIV)
HIV Env of isolate 263-8 = HIV Env of isolate 263-8 (HIV)
[3] = molecular target: HIV Env of isolate T251-18 (HIV)
[4] = molecular target: HIV Env of isolate 235-47 (HIV)
[5] = molecular target: HIV Env of isolate 620345.c01 (HIV)
[6] = molecular target: HIV Env of isolate R2184.c04 (HIV)
[7] = molecular target: HIV Env of isolate R1166.c01 (HIV)
HIV Env of isolate CNE8 = HIV Env of isolate CNE8 (HIV)
[8] = molecular target: HIV Env of isolate BJOX009000.02.4 (HIV)
[9] = molecular target: HIV Env of isolate BJOX015000.11.5 (HIV)
[10] = molecular target: HIV Env of isolate BJOX025000.01.1 (HIV)
[11] = molecular target: HIV Env of isolate BJOX028000.10.3 (HIV)
[12] = molecular target: HIV Env of isolate X2088_c9 (HIV)
[13] = molecular target: HIV Env of isolate 231965.c01 (HIV)
[14] = molecular target: HIV Env of isolate 3817.v2.c59 (HIV)
[15] = molecular target: HIV Env of isolate 3301.v1.c24 (HIV)
[16] = molecular target: HIV Env of isolate 6540.v4.c1 (HIV)
[17] = molecular target: HIV Env of isolate 0815.v3.c3 (HIV)
[18] = molecular target: HIV Env of isolate 3103.v3.c10 (HIV)
[19] = molecular target: HIV Env of isolate 6535.3 (HIV)
[20] = molecular target: HIV Env of isolate SC422661.8 (HIV)
[21] = molecular target: HIV Env of isolate AC10.0.29 (HIV)
[22] = molecular target: HIV Env of isolate TRJO4551.58 (HIV)
[23] = molecular target: HIV Env of isolate CAAN5342.A2 (HIV)
[24] = molecular target: HIV Env of isolate WEAU_d15_410_5017 (HIV)
[25] = molecular target: HIV Env of isolate 1012_11_TC21_3257 (HIV)
[26] = molecular target: HIV Env of isolate 6244_13_B5_4576 (HIV)
[27] = molecular target: HIV Env of isolate ZM197M.PB7 (HIV)
[28] = molecular target: HIV Env of isolate ZM233M.PB6 (HIV)
[29] = molecular target: HIV Env of isolate CAP45.2.00.G3 (HIV)
[30] = molecular target: HIV Env of isolate HIV-001428-2.42 (HIV)
[31] = molecular target: HIV Env of isolate HIV-16845-2.22 (HIV)
[32] = molecular target: HIV Env of isolate Ce1176_A3 (HIV)
[33] = molecular target: HIV Env of isolate Ce2010_F5 (HIV)
[34] = molecular target: HIV Env of isolate Ce1172_H1 (HIV)
[35] = molecular target: HIV Env of isolate 246F_C1G (HIV)
[36] = molecular target: HIV Env of isolate 249M_B10 (HIV)
[37] = molecular target: HIV Env of isolate ZM247v1(Rev-) (HIV)
[38] = molecular target: HIV Env of isolate 7030102001E5(Rev-) (HIV)
HIV Env of isolate CNE52 = HIV Env of isolate CNE52 (HIV)
[39] = molecular target: HIV Env of isolate MS208.A1 (HIV)
[40] = molecular target: HIV Env of isolate Q769.d22 (HIV)
[41] = molecular target: HIV Env of isolate 0260.v5.c36 (HIV)
[42] = molecular target: HIV Env of isolate 191955_A11 (HIV)

B1: ePGT121.15.H1.L1 (antibody, V domains shown)
VH: QMQLQESGPGLVKPGETLSLTCSVSGASISSSYWSWLRETPGKGLEWIGYTHHSGDTNYAPSLKSRVHLGLHPSKNQVSLSLTSVTAADTAVYYCARTLHGRRIYGVVAFNEWFTYFYWEVWGNGTQVTVSS
VL: SDISVAPGETVRISCGGESIGSRAVQWYQHRAGQAPKLIIYNNQDRPPGIPERFSGSPDIDFGTTATLTITNVEAGDEATYYCHIWDSRRPTNWVFGGGTTLTVL
[1]
  neutralization IC50: > 50 µg/mL
[2]
  neutralization IC50: 0.0178 µg/mL
HIV Env of isolate 263-8
  neutralization IC50: 0.0044 µg/mL
[3]
  neutralization IC50: 0.0055 µg/mL
[4]
  neutralization IC50: 0.0019 µg/mL
[5]
  neutralization IC50: > 50 µg/mL
[6]
  neutralization IC50: > 50 µg/mL
[7]
  neutralization IC50: > 50 µg/mL
HIV Env of isolate CNE8
  neutralization IC50: > 50 µg/mL
[8]
  neutralization IC50: 0.0046 µg/mL
[9]
  neutralization IC50: > 50 µg/mL
[10]
  neutralization IC50: > 50 µg/mL
[11]
  neutralization IC50: 0.0021 µg/mL
[12]
  neutralization IC50: 0.0007 µg/mL
[13]
  neutralization IC50: > 50 µg/mL
[14]
  neutralization IC50: 0.724 µg/mL
[15]
  neutralization IC50: 0.0029 µg/mL
[16]
  neutralization IC50: > 50 µg/mL
[17]
  neutralization IC50: 0.0017 µg/mL
[18]
  neutralization IC50: 0.0017 µg/mL
[19]
  neutralization IC50: 0.0003 µg/mL
[20]
  neutralization IC50: 0.0005 µg/mL
[21]
  neutralization IC50: 0.0002 µg/mL
[22]
  neutralization IC50: 0.0005 µg/mL
[23]
  neutralization IC50: 0.0002 µg/mL
[24]
  neutralization IC50: 0.0001 µg/mL
[25]
  neutralization IC50: 0.0009 µg/mL
[26]
  neutralization IC50: 0.0037 µg/mL
[27]
  neutralization IC50: > 50 µg/mL
[28]
  neutralization IC50: 0.0124 µg/mL
[29]
  neutralization IC50: 5.02 µg/mL
[30]
  neutralization IC50: 0.0001 µg/mL
[31]
  neutralization IC50: 0.0072 µg/mL
[32]
  neutralization IC50: 0.0004 µg/mL
[33]
  neutralization IC50: > 50 µg/mL
[34]
  neutralization IC50: 0.0003 µg/mL
[35]
  neutralization IC50: 0.0013 µg/mL
[36]
  neutralization IC50: 0.0022 µg/mL
[37]
  neutralization IC50: 0.0003 µg/mL
[38]
  neutralization IC50: 0.0002 µg/mL
HIV Env of isolate CNE52
  neutralization IC50: 0.0203 µg/mL
[39]
  neutralization IC50: > 50 µg/mL
[40]
  neutralization IC50: > 50 µg/mL
[41]
  neutralization IC50: 0.004 µg/mL
[42]
  neutralization IC50: > 50 µg/mL

B2: PGT-121 (antibody, V domains shown)
VH: QMQLQESGPGLVKPSETLSLTCSVSGASISDSYWSWIRRSPGKGLEWIGYVHKSGDTNYSPSLKSRVNLSLDTSKNQVSLSLVAATAADSGKYYCARTLHGRRIYGIVAFNEWFTYFYMDVWGNGTQVTVSS
VL: SDISVAPGETARISCGEKSLGSRAVQWYQHRAGQAPSLIIYNNQDRPSGIPERFSGSPDSPFGTTATLTITSVEAGDEADYYCHIWDSRVPTKWVFGGGTTLTVLG
[1]
  neutralization IC50: > 50 µg/mL
[2]
  neutralization IC50: 44.2 µg/mL
HIV Env of isolate 263-8
  neutralization IC50: 0.648 µg/mL
[3]
  neutralization IC50: 29 µg/mL
[4]
  neutralization IC50: 0.137 µg/mL
[5]
  neutralization IC50: > 50 µg/mL
[6]
  neutralization IC50: > 50 µg/mL
[7]
  neutralization IC50: > 50 µg/mL
HIV Env of isolate CNE8
  neutralization IC50: > 50 µg/mL
[8]
  neutralization IC50: 2.86 µg/mL
[9]
  neutralization IC50: > 50 µg/mL
[10]
  neutralization IC50: > 50 µg/mL
[11]
  neutralization IC50: > 50 µg/mL
[12]
  neutralization IC50: 0.003 µg/mL
[13]
  neutralization IC50: > 50 µg/mL
[14]
  neutralization IC50: 18.9 µg/mL
[15]
  neutralization IC50: 0.008 µg/mL
[16]
  neutralization IC50: > 50 µg/mL
[17]
  neutralization IC50: 0.025 µg/mL
[18]
  neutralization IC50: 0.009 µg/mL
[19]
  neutralization IC50: 0.002 µg/mL
[20]
  neutralization IC50: 0.038 µg/mL
[21]
  neutralization IC50: 0.024 µg/mL
[22]
  neutralization IC50: 1.31 µg/mL
[23]
  neutralization IC50: 0.007 µg/mL
[24]
  neutralization IC50: 0.026 µg/mL
[25]
  neutralization IC50: 0.003 µg/mL
[26]
  neutralization IC50: 0.061 µg/mL
[27]
  neutralization IC50: > 50 µg/mL
[28]
  neutralization IC50: 3.69 µg/mL
[29]
  neutralization IC50: 1.63 µg/mL
[30]
  neutralization IC50: 0.014 µg/mL
[31]
  neutralization IC50: 3.97 µg/mL
[32]
  neutralization IC50: 0.013 µg/mL
[33]
  neutralization IC50: > 50 µg/mL
[34]
  neutralization IC50: 0.011 µg/mL
[35]
  neutralization IC50: 0.041 µg/mL
[36]
  neutralization IC50: > 50 µg/mL
[37]
  neutralization IC50: 0.028 µg/mL
[38]
  neutralization IC50: 0.009 µg/mL
HIV Env of isolate CNE52
  neutralization IC50: 2.05 µg/mL
[39]
  neutralization IC50: > 50 µg/mL
[40]
  neutralization IC50: > 50 µg/mL
[41]
  neutralization IC50: 0.053 µg/mL
[42]
  neutralization IC50: > 50 µg/mL
